We go through four molecules from patent publication US7297515 (MYRIAD GENETICS, dated 2007).

For assay [1], the target named is T1, zinc finger protein 202, alt. transcript beta (ZNF202b), bait fragment amino acids 1-199 (human, UniProt P04386 1-147; O95125 1-199).
T1 construct: also called ZNF202beta; ZNF202 m1
Kind of assay: yeast two-hybrid; prey fragment isolated with ZNF202b bait 1-199. The source says:
(§1) In these yeast cells, the bait was produced as a C-terminal fusion protein with the DNA binding domain of the transcription factor Gal4 (amino acids 1 to 147). Prey libraries were transformed into the yeast strain BK100 (genotype of this strain: MATa trp1-901 leu2-3,112 ura3-52 his3-200 gal4Δ gal80 LYS2::GAL-HIS3 GAL2-ADE2 met2::GAL7-lacZ), and selected for the ability to drive leucine synthesis. In these yeast cells, each cDNA was expressed as a fusion protein with the transcription activation domain of the transcription factor Gal4 (amino acids 768 to 881) and a 9 amino acid hemagglutinin epitope tag. PNY200 cells (MATα mating type), expressing the bait, were then mated with BK100 cells (MATa mating type), expressing prey proteins from a prey library. The resulting diploid yeast cells expressing proteins interacting with the bait protein were selected for the ability to synthesize tryptophan, leucine, histidine, and adenine. DNA was prepared from each clone, transformed by electroporation into *E. coli* strain KC8 (Clontech KC8 electrocompetent cells, Catalog No. C2023-1), and the cells were selected on ampicillin-containing plates in the absence of either tryptophane (selection for the bait plasmid) or leucine (selection for the library plasmid). DNA for both plasmids was prepared and sequenced by the dideoxynucleotide chain termination method. […]

Assay [2] has as its target T2, zinc finger protein 202, alt. transcript beta (ZNF202b), bait fragment amino acids 1-224 (human, UniProt P04386 1-147; O95125 1-224).
T2 construct: also called ZNF202beta; ZNF202 m1
Kind of assay: yeast two-hybrid; prey fragment isolated with ZNF202b bait 1-224.
Text: as §1

The target of assay [3] is T3, novel protein PN1851, fragment residues 14-369 (human, UniProt P04386 768-881 (Saccharomyces cerevisiae entry)).
T3 construct: range 768-881
Kind of assay: yeast two-hybrid search, bait ZNF202 33-118. The source says:
The new construct was selected directly in the yeast strain PNY200 for its ability to drive tryptophane synthesis (genotype of this strain: MATα trp1-901 leu2-3, 112 ura3-52 his3-200 ade2 gal4Δ gal80). In these yeast cells, the bait was produced as a C-terminal fusion protein with the DNA binding domain of the transcription factor Gal4 (amino acids 1 to 147). Prey libraries were transformed into the yeast strain BK100 (genotype of this strain: MATa trp1-901 leu2-3,112 ura3-52 his3-200 gal4Δ gal80 LYS2::GAL-HIS3 GAL2-ADE2 met2::GAL7-lacZ), and selected for the ability to drive leucine synthesis. In these yeast cells, each cDNA was expressed as a fusion protein with the transcription activation domain of the transcription factor Gal4 (amino acids 768 to 881) and a 9 amino acid hemagglutinin epitope tag. PNY200 cells (MATα mating type), expressing the bait, were then mated with BK100 cells (MATa mating type), expressing prey proteins from a prey library. The resulting diploid yeast cells expressing proteins interacting with the bait protein were selected for the ability to synthesize tryptophan, leucine, histidine, and adenine. […]

B1: novel protein PN7745, prey fragment amino acids 2-171 (other, not shown: small tags and cut ends)
chain: ANFNQSGNIADSSLSFTFTNSSNGPNLITTQTNSQALSQPIASSNVHDNFMNNEITASKIDDGNNSKPLSPGWTDQTAYNAFGITTGMFNTTTMDDVYNYLFDDEDTPPNPKKEQAVVPLNKMTAISPEPQTLASTEQNEVPRVVTSGEQEAILRGNAADAESFRQRFRWFCYSEVAGPRKALSQLWELCNQWLRPDIHTKEQILELLVFEQFLTILPGEIRIWVKSQHPESSEEVVTLIEDLTQILEEKDPVSEDSTVSQEENSKEDKMVTVCPNTESCESAL
notes: range 768-881; Yeast two-hybrid prey
For B1, the binding result in assay [1] and in assay [2] was “binds” each time.

B2: novel protein PN7745, prey fragment amino acids 44-171 (other, not shown: small tags and cut ends)
chain: ANFNQSGNIADSSLSFTFTNSSNGPNLITTQTNSQALSQPIASSNVHDNFMNNEITASKIDDGNNSKPLSPGWTDQTAYNAFGITTGMFNTTTMDDVYNYLFDDEDTPPNPKKENAADAESFRQRFRWFCYSEVAGPRKALSQLWELCNQWLRPDIHTKEQILELLVFEQFLTILPGEIRIWVKSQHPESSEEVVTLIEDLTQILEEKDPVSEDSTVSQEENSKEDKMVTVCPNTESCESAL
notes: as for B1
Take B2: the binding result in assay [1] was “binds”.

B3: novel protein PN7745, prey fragment amino acids 2-156 (other, not shown: small tags and cut ends)
chain: ANFNQSGNIADSSLSFTFTNSSNGPNLITTQTNSQALSQPIASSNVHDNFMNNEITASKIDDGNNSKPLSPGWTDQTAYNAFGITTGMFNTTTMDDVYNYLFDDEDTPPNPKKEQAVVPLNKMTAISPEPQTLASTEQNEVPRVVTSGEQEAILRGNAADAESFRQRFRWFCYSEVAGPRKALSQLWELCNQWLRPDIHTKEQILELLVFEQFLTILPGEIRIWVKSQHPESSEEVVTLIEDLTQILEEKDPVSEDSTVSQEENSKEDK
notes: as for B1
In the case of B3, the binding result in assay [2] is “binds”.

B4: zinc finger protein 202, alt. transcript beta (ZNF202b), bait fragment amino acids 33-118 (other, UniProt P04386 1-147, looked up)
chain: MKLLSSIEQACDICRLKKLKCSKEKPKCAKCLKNNWECRYSPKTKRSPLTRAHLTEVESRLERLEQLFLLIFPREDLDMILKMDSLQDIKALLTGLFVQDNVNKDAVTDRLASVETDMPLTLRQHRISATSSSEESSNKGQRQLTVSSVLQRDDPVLETSHQNFRRFRYQEAASPREALIRLRELCHQWLRPERRTKEQILELLVLEQFLTVLPGELQSWVRGQRPESGEEAV
notes: also called ZNF202beta; ZNF202 m1
For the molecule B4, the binding result in assay [3] is “binds”.
